Assay results published in patent US20160264649A1.

How the values were obtained:
Experiment in all cases: cell-based or functional assay
[1] = biological target: HIV-1 MGRM-A-004 Env (HIV-1)
[2] = biological target: HIV-1 92UG031 Env (HIV-1)
[3] = biological target: HIV-1 MGRM-A-003 Env (HIV-1)
[4] = biological target: HIV-1 93UG077 Env (HIV-1)
[5] = biological target: HIV-1 93RW029 Env (HIV-1)
[6] = biological target: HIV-1 MGRM-A-009 Env (HIV-1)
[7] = biological target: HIV-1 MGRM-A-011 Env (HIV-1)
[8] = biological target: HIV-1 92RW026 Env (HIV-1)
[9] = biological target: HIV-1 94KE105 Env (HIV-1)
[10] = biological target: HIV-1 MGRM-A-002 Env (HIV-1)
[11] = biological target: HIV-1 MGRM-A-006 Env (HIV-1)
[12] = biological target: HIV-1 MGRM-A-005 Env (HIV-1)
[13] = biological target: HIV-1 92RW021 Env (HIV-1)
[14] = biological target: HIV-1 92RW008 Env (HIV-1)
[15] = biological target: HIV-1 92UG037 Env (HIV-1)
[16] = biological target: HIV-1 94UG103 Env (HIV-1)
[17] = biological target: HIV-1 MGRM-A-008 Env (HIV-1)
[18] = biological target: HIV-1 MGRM-A-001 Env (HIV-1)
[19] = biological target: HIV-1 92RW009 Env (HIV-1)
[20] = biological target: HIV-1 MGRM-A-014 Env (HIV-1)
HIV-1 VLGCA1 Env (HIV-1) = biological target: HIV-1 VLGCA1 Env (HIV-1)
[21] = biological target: HIV-1 MGRM-A-012 Env (HIV-1)
[22] = biological target: HIV-1 92RW024 Env (HIV-1)
[23] = biological target: HIV-1 Env of isolate MGRM-Chronic-B-024 (subtype B) (HIV-1)
[24] = biological target: HIV-1 Env of pseudovirus isolate MGRM-G-017 (subtype G) (HIV-1)
[25] = biological target: HIV-1 Env of isolate MG RM-C-024 (subtype C) (HIV-1)
[26] = biological target: HIV-1 Env of isolate 92WR020 (subtype A) (HIV-1)
[27] = biological target: HIV-1 Env of isolate MGRM-Chronic-B-008 (subtype B) (HIV-1)
[28] = biological target: HIV-1 Env of isolate MGRM-Chronic-B-010 (subtype B) (HIV-1)
[29] = biological target: HIV-1 Env of isolate MGRM-D-004 (subtype D) (HIV-1)
[30] = biological target: HIV-1 Env of isolate TRJ04551.58 (subtype B) (HIV-1)
[31] = biological target: HIV-1 Env of isolate MG RM-C-028 (subtype C) (HIV-1)
[32] = biological target: HIV-1 Env of isolate MGRM-Chronic-B-023 (subtype B) (HIV-1)
[33] = biological target: HIV-1 Env of isolate 93MW959 (subtype C) (HIV-1)
[34] = biological target: HIV-1 MGRM-F1-013 Env (HIV-1)
[35] = biological target: HIV-1 Env of isolate MG RM-C-025 (subtype C) (HIV-1)
[36] = biological target: HIV-1 Env of isolate 97ZA012 (subtype C) (HIV-1)
[37] = biological target: HIV-1 Env of pseudovirus isolate MGRM-G-014 (subtype G) (HIV-1)
[38] = biological target: HIV-1 Env of isolate MGRM-F1-004 (subtype F) (HIV-1)
[39] = biological target: HIV-1 Env of isolate 93WR029 (subtype A) (HIV-1)
[40] = biological target: HIV-1 Env of isolate MGRM-D-016 (subtype D) (HIV-1)
[41] = biological target: HIV-1 Env of isolate APV_17 (subtype B) (HIV-1)
[42] = biological target: HIV-1 Env of isolate TRO.11 (subtype B) (HIV-1)
[43] = biological target: HIV-1 Env of pseudovirus isolate MGRM-G-015 (subtype G) (HIV-1)
[44] = biological target: HIV-1 92RW008 Env (HIV-1); remark: listed apart in the source
[45] = biological target: HIV-1 Env of isolate MGRM-D-028 (subtype D) (HIV-1)
[46] = biological target: HIV-1 Env of isolate MGRM-D-020 (subtype D) (HIV-1)
[47] = biological target: HIV-1 Env of isolate APV_6 (subtype B) (HIV-1)
[48] = biological target: HIV-1 Env of isolate 92UG031 (subtype A) (HIV-1)
[49] = biological target: HIV-1 Env of isolate MGRM-Chronic-B-017 (subtype B) (HIV-1)
[50] = biological target: HIV-1 Env of isolate 92UG046 (subtype D) (HIV-1)

Chain of 1443_C16 (PG16) (TCN-116) (antibody) (VH): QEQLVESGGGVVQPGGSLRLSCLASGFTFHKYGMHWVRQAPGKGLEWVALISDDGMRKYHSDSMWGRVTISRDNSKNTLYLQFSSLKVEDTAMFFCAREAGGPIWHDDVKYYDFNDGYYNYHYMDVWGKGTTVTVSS
Chain of 1443_C16 (PG16) (TCN-116) (antibody) (VL): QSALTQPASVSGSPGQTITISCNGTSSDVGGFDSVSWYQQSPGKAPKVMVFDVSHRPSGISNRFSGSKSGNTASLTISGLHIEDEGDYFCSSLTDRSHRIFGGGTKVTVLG

Which results are given for 1443_C16 (PG16) (TCN-116) (antibody)?
neutralization IC50 [1]: 0.04 µg/mL; neutralization IC50 [2]: 0.43 µg/mL; neutralization IC50 [3]: 2.65 µg/mL; neutralization IC50 [4]: > 50 µg/mL; neutralization IC50 [5]: 3.83 µg/mL; neutralization IC50 [6]: 0.01 µg/mL; neutralization IC50 [7]: 0.24 µg/mL; neutralization IC50 [8]: 0.03 µg/mL; neutralization IC50 [9]: 6.13 µg/mL; neutralization IC50 [10]: 0.004 µg/mL; neutralization IC50 [11]: > 50 µg/mL; neutralization IC50 [12]: 0.09 µg/mL; neutralization IC50 [13]: 0.11 µg/mL; neutralization IC50 [14]: 0.002 µg/mL; neutralization IC50 [15]: 0.01 µg/mL; neutralization IC50 [16]: 0.04 µg/mL; neutralization IC50 [17]: > 50 µg/mL; neutralization IC50 [18]: > 50 µg/mL; neutralization IC50 [19]: 0.11 µg/mL; neutralization IC50 [20]: 20.3 µg/mL; neutralization IC50 (HIV-1 VLGCA1 Env (HIV-1)): 0.18 µg/mL; neutralization IC50 [21]: 20.7 µg/mL; neutralization IC50 [22]: 0.08 µg/mL

Which results are given for 1496_C09 (PG9) (TCN-109) (antibody)?
IC50 [23]: 0.222 µg/mL; IC50 [24]: 0.104 µg/mL; IC50 (µg/mL), pseudovirus neutralization [25]: 0.227 µg/mL; IC50 (pseudovirus neutralization) [26]: 0.141 µg/mL; IC50 [27]: 8.78 µg/mL; IC50 [28]: 0.004 µg/mL; IC50 (pseudovirus neutralization) [29]: 0.06 µg/mL; IC50 (µg/mL), pseudovirus neutralization [30]: 0.858 µg/mL; IC50 (µg/mL), pseudovirus neutralization [31]: 0.067 µg/mL; IC50 [32]: 0.027 µg/mL; IC50 (µg/mL), pseudovirus neutralization [33]: 0.054 µg/mL; IC50 (pseudovirus neutralization) [34]: 0.56 µg/mL; IC50 (µg/mL), pseudovirus neutralization [35]: 0.148 µg/mL; IC50 (µg/mL), pseudovirus neutralization [36]: 3.4 µg/mL; IC50 [37]: 16.5 µg/mL; IC50 (pseudovirus neutralization) [38]: 0.175 µg/mL; IC50 (pseudovirus neutralization) [39]: 0.69 µg/mL; IC50 (pseudovirus neutralization) [40]: 0.098 µg/mL; IC50 [41]: 34.8 µg/mL; IC50 (µg/mL), pseudovirus neutralization [42]: 16.9 µg/mL; IC50 [43]: 6.6 µg/mL; IC50 [44]: 0.006 µg/mL; IC50 (pseudovirus neutralization) [45]: 20.2 µg/mL; IC50 (pseudovirus neutralization) [46]: 1.67 µg/mL; IC50 [47]: 0.181 µg/mL; IC50 (pseudovirus neutralization) [48]: 3.6 µg/mL; IC50 [49]: 0.688 µg/mL; IC50 (neutralization) [50]: 1.86 µg/mL; neutralization IC50 [2]: 3.08 µg/mL; neutralization IC50 [3]: 0.65 µg/mL; neutralization IC50 [5]: 1.19 µg/mL; neutralization IC50 [6]: 0.03 µg/mL; neutralization IC50 [8]: 0.27 µg/mL; neutralization IC50 [9]: 29.6 µg/mL; neutralization IC50 [13]: 0.05 µg/mL; neutralization IC50 [14]: 0.01 µg/mL; neutralization IC50 [16]: 0.24 µg/mL; neutralization IC50 [19]: 0.03 µg/mL; neutralization IC50 [20]: 0.62 µg/mL; neutralization IC50 (HIV-1 VLGCA1 Env (HIV-1)): 0.07 µg/mL; neutralization IC50 [21]: 11.2 µg/mL; neutralization IC50 [22]: 0.18 µg/mL

For PGV04 (antibody), which IC50 [23] is on record?
The IC50 was 2.52 µg/mL.

And the IC50 [24]?
Its IC50 is 0.065 µg/mL.

And the IC50 (µg/mL), pseudovirus neutralization [25]?
Its IC50 (µg/mL), pseudovirus neutralization is greater than 50 µg/mL.

And the IC50 (pseudovirus neutralization) [26]?
Its IC50 (pseudovirus neutralization) is 0.055 µg/mL.

What about the IC50 [27] of the same substance?
Its IC50 is 0.166 µg/mL.

What about the IC50 [28] of the same substance?
The IC50 was 0.744 µg/mL.

What about the IC50 (pseudovirus neutralization) [29] of the same substance?
Its IC50 (pseudovirus neutralization) is 43.2 µg/mL.

And the IC50 (µg/mL), pseudovirus neutralization [30]?
Its IC50 (µg/mL), pseudovirus neutralization is 0.028 µg/mL.

What about the IC50 (µg/mL), pseudovirus neutralization [31] of the same substance?
The IC50 (µg/mL), pseudovirus neutralization was 0.149 µg/mL.

What about the IC50 [32] of the same substance?
The IC50 was 0.139 µg/mL.

What about the IC50 (µg/mL), pseudovirus neutralization [33] of the same substance?
The IC50 (µg/mL), pseudovirus neutralization was greater than 50 µg/mL.

What about the IC50 (µg/mL), pseudovirus neutralization [35] of the same substance?
Its IC50 (µg/mL), pseudovirus neutralization is greater than 50 µg/mL.

What about the IC50 (µg/mL), pseudovirus neutralization [36] of the same substance?
Its IC50 (µg/mL), pseudovirus neutralization is 0.041 µg/mL.

And the IC50 [37]?
Its IC50 is 0.056 µg/mL.

What about the IC50 (pseudovirus neutralization) [38] of the same substance?
The IC50 (pseudovirus neutralization) was 0.58 µg/mL.

And the IC50 (pseudovirus neutralization) [39]?
The IC50 (pseudovirus neutralization) was 0.54 µg/mL.

And the IC50 (pseudovirus neutralization) [40]?
The IC50 (pseudovirus neutralization) was 0.201 µg/mL.

What about the IC50 [41] of the same substance?
The IC50 was 0.309 µg/mL.

What about the IC50 (µg/mL), pseudovirus neutralization [42] of the same substance?
The IC50 (µg/mL), pseudovirus neutralization was 0.121 µg/mL.

What about the IC50 [43] of the same substance?
Its IC50 is 0.333 µg/mL.

What about the IC50 [44] of the same substance?
The IC50 was 0.014 µg/mL.

And the IC50 (pseudovirus neutralization) [45]?
The IC50 (pseudovirus neutralization) was 1.01 µg/mL.

And the IC50 (pseudovirus neutralization) [46]?
Its IC50 (pseudovirus neutralization) is 0.097 µg/mL.

And the IC50 [47]?
Its IC50 is 24.2 µg/mL.

What about the IC50 (pseudovirus neutralization) [48] of the same substance?
The IC50 (pseudovirus neutralization) was 4.46 µg/mL.

And the IC50 [49]?
The IC50 was 0.129 µg/mL.

And the IC50 (neutralization) [50]?
Its IC50 (neutralization) is 22.4 µg/mL.

Which IC50 [23] does the source give for VRC01 (antibody) here?
The IC50 was 0.377 µg/mL.

What about the IC50 [24] of the same substance?
Its IC50 is 0.124 µg/mL.

What about the IC50 [25] of the same substance?
Its IC50 is 3.4 µg/mL.

What about the IC50 (pseudovirus neutralization) [26] of the same substance?
The IC50 (pseudovirus neutralization) was 0.13 µg/mL.

What about the IC50 [27] of the same substance?
Its IC50 is 0.155 µg/mL.

What about the IC50 [28] of the same substance?
Its IC50 is 0.156 µg/mL.

What about the IC50 (pseudovirus neutralization) [29] of the same substance?
Its IC50 (pseudovirus neutralization) is 1.25 µg/mL.

And the IC50 [30]?
Its IC50 is 0.06 µg/mL.

And the IC50 [31]?
Its IC50 is 0.319 µg/mL.

What about the IC50 [32] of the same substance?
The IC50 was 0.275 µg/mL.

And the IC50 [33]?
Its IC50 is 0.053 µg/mL.

And the IC50 [35]?
The IC50 was 2.36 µg/mL.

What about the IC50 [36] of the same substance?
Its IC50 is 0.088 µg/mL.

And the IC50 [37]?
Its IC50 is 0.056 µg/mL.

And the IC50 (pseudovirus neutralization) [38]?
Its IC50 (pseudovirus neutralization) is 0.305 µg/mL.

And the IC50 (pseudovirus neutralization) [39]?
Its IC50 (pseudovirus neutralization) is 1.57 µg/mL.

What about the IC50 (pseudovirus neutralization) [40] of the same substance?
Its IC50 (pseudovirus neutralization) is 0.452 µg/mL.

And the IC50 [41]?
Its IC50 is 0.477 µg/mL.

And the IC50 [42]?
The IC50 was 0.186 µg/mL.

And the IC50 [43]?
The IC50 was 0.548 µg/mL.

And the IC50 [44]?
Its IC50 is 0.037 µg/mL.

And the IC50 (pseudovirus neutralization) [45]?
Its IC50 (pseudovirus neutralization) is 0.377 µg/mL.

What about the IC50 (pseudovirus neutralization) [46] of the same substance?
Its IC50 (pseudovirus neutralization) is 0.192 µg/mL.

What about the IC50 [47] of the same substance?
The IC50 was 1.81 µg/mL.

And the IC50 (pseudovirus neutralization) [48]?
The IC50 (pseudovirus neutralization) was 0.469 µg/mL.

What about the IC50 [49] of the same substance?
Its IC50 is 0.141 µg/mL.

And the IC50 (neutralization) [50]?
The IC50 (neutralization) was 12.7 µg/mL.
